Test results: patent US20250295803A1, “5T4 ANTIBODY-DRUG CONJUGATES AND USES THEREOF” (EXELIXIS, INC., priority 2022, published 2025)
Positions count from the first letter of the chain named.

T1: human 5T4 (Homo sapiens, UniProt Q13641)
T1 sequence (Q13641 32-355 limits assumed): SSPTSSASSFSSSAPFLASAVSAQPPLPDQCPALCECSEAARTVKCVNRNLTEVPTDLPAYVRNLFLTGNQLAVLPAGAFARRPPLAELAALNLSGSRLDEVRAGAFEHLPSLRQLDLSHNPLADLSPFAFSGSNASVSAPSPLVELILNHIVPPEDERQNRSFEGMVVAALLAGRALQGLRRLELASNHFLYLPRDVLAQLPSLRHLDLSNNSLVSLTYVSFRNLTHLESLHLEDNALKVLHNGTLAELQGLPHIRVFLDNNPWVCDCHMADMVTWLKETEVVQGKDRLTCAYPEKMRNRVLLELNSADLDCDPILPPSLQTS

T2: unconjugated human TPBG/5T4 protein with a c-terminal polyhistidine and Avi tag (AcroBiosystems Cat. No. … (human, UniProt Q13641 32-355))
T2 construct: Bought protein; also called Acro TPGH52E5; Acro Catalog No. TPGH52E; not shown: C-terminal polyhistidine and Avi tag
T2 sequence: T1 sequence (Q13641 32-355 limits assumed)

T3: HEK293 and CHO cells transfected to express human 5T4 (Homo sapiens, UniProt Q13641)
T3 construct: expressed in transfected cells; host or cells: HEK293 and CHO
T3 sequence (Q13641 32-420): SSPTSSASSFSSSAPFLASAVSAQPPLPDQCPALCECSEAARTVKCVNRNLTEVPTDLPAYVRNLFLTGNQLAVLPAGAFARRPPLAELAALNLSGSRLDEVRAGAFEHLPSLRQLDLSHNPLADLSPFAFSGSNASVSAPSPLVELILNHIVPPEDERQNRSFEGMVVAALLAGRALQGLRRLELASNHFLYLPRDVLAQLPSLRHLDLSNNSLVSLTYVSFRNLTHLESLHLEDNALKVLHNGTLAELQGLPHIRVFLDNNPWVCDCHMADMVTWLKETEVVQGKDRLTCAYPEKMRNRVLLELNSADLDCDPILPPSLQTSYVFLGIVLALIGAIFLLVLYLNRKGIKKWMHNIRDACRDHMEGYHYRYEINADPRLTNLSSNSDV

B1: mAbA17: 5T4 antibody comprising VH of SEQ ID NO:62 and VL of SEQ ID NO:63 (antibody, V domains shown)
VH: EVQLVESGGGLVQPGGSLRLSCAASGFTFSRYWIHWVRQAPGKGLEWVAAIFPYSGSTLYADSVKGRFTISADTSKNTAYLQMNSLRAEDTAVYYCARSPSRSILPSGLDYWGQGTLVTVSS
VL: DIQMTQSPSSLSASVGDRVTITCRASQSVSSAVAWYQQKPGKAPKLLIYSASSLYSGVPSRFSGSRSGTDFTLTISSLQPEDFATYYCQQGDGSPYTFGQGTKVEIK
modifications: Antibody mAbA17 VH Sequence; Antibody mAbA17 VL Sequence
B2: mAbA4: 5T4 antibody comprising VH of SEQ ID NO:25 and VL of SEQ ID NO:26 (antibody, V domains shown)
VH: EVQLVESGGGLVQPGGSLRLSCAASGFTFSRYYIHWVRQAPGKGLEWVAFISPGGSYTYYADSVKGRFTISADTSKNTAYLQMNSLRAEDTAVYYCAREYYSMGVLDYWGQGTLVTVSS
VL: B1 VL with G91A, D92Y, G93E
modifications: Antibody mAbA4 VH Sequence; Antibody mAbA4 VL Sequence
B3: mAbA15: 5T4 antibody comprising VH of SEQ ID NO:44 and VL of SEQ ID NO:45 (antibody, V domains shown)
VH: EVQLVESGGGLVQPGGSLRLSCAASGFTFSSYYIHWVRQAPGKGLEWVAYITSTGSYTEYADSVKGRFTISADTSKNTAYLQMNSLRAEDTAVYYCARYDRSTRYSGLDYWGQGTLVTVSS
VL: B1 VL with G91A, D92Y, G93A, S94T, Y96V
modifications: Antibody mAbA15 VH Sequence; Antibody mAbA15 VL Sequence
B4: mAbA17 (antibody, V domains shown)
VH: B1 VH
VL: DIQMTQSPSSLSASVGDRVTITCRASQSVSSAVAWYQQKPGKAPKLLIYSASSLYSGVPSRFSGSRSGTDFTLTISSLQPEDFATYYCQQGDGSPYTFGQGTKVEIKR
notes: also called Antibody mAbA17
B5: mAbA4 (antibody, V domains shown)
VH: B2 VH
VL: B4 VL with G91A, D92Y, G93E
notes: also called Antibody mAbA4
B6: mAbA15 (antibody, V domains shown)
VH: B3 VH
VL: B4 VL with G91A, D92Y, G93A, S94T, Y96V
notes: also called Antibody mAbA15

Each molecule was assayed against T1, human 5T4 (assay: Octet monovalent binding affinity assay). Settings: in all three lots of human 5T4.
Set-up: polyhistidine (C); Avi tag (C); purchased Acro Biosystems TPGH52E
Description: (§1) Monovalent binding assays were employed to determine the relative affinity of each 5T4 binder obtained by the phage display in Example 1 to human 5T4. Human 5T4 was purchased from Acro Biosystems (Acro Catalog No. TPGH52E) and also produced separately. The monovalent interaction of binders to human 5T4 was monitored using an Octet (Pall ForteBio) instrument. For these assays, 36 nM antibody was immobilized on anti-human Fc (AHC) sensors in 1× kinetic buffer (ForteBio). The sensors were then dipped in wells containing a 3× serial dilution of human 5T4 ranging from 1 μM to 1.37 nM. The association was allowed to reach equilibrium. Sensors were then moved to wells containing only 1× kinetic buffer and allowed to dissociate to equilibrium. Association and dissociation rates were measured and from these, monovalent KDS were calculated using the onboard analysis software (ForteBio).

| Molecule | monovalent binding strength |
| --- | --- |
| B1 | strong or moderate binding |
| B2 | strong or moderate binding |
| B3 | strong or moderate binding |

What follows are molecules tested against T2, unconjugated human TPBG/5T4 protein … (assay: ELISA on coated human 5T4 His-Avi (Acro TPG-H52E5); antibody condition: PBS time 48 hr.). Settings: not given.
Description: (§2) A. Normal Binding Unconjugated antibodies were tested for their ability to bind to human 5T4 (hu5T4) using ELISA. On Day 1, unconjugated human TPBG/5T4 protein with a c-terminal polyhistidine and Avi (AVITAG™) tag (AcroBiosystems (Newark, DE, USA), Cat. No. TPG-H52E5) was diluted 2 μg/mL in PBS, mixed thoroughly, plated 100 μL per well in a 96-well plate (Nunc MAXISORP®) and incubated overnight at 4° C.
3. Oxidative Stress. Several unconjugated antibodies were tested for their ability to bind to 5T4 using ELISA in an oxidative environment. Solutions of 1 mg/mL to 10 mg/mL of antibody in 20 mM citrate/50 mM NaCl at a pH of 5.5 were prepared and stored at 37° C. for 1 to 2 weeks.

| EC50 [nM] | Molecule |
| --- | --- |
| 0.185 | B4 |
| 0.189 | B5 |
| 0.203 | B6 |

Each molecule was assayed against T2, unconjugated human TPBG/5T4 protein … (assay: Octet, antibody on AHC sensors, human 5T4 in solution (monovalent); Acro TPGH52E5 Lot B465-87AF1-K2). Settings: not given.
Description: as §1

| Kd [nM] | Molecule |
| --- | --- |
| 2.81 | B4 |
| 0.01 | B5 |
| 3.62 | B6 |

The molecules below were run against T2, unconjugated human TPBG/5T4 protein … (assay: ELISA on coated human 5T4 His-Avi (Acro TPG-H52E5); antibody condition: pH 8.5 Day 7). Settings: not given.
Description: as §2

| EC50 [nM] | Molecule |
| --- | --- |
| 0.158 | B4 |
| 0.128 | B5 |
| 0.143 | B6 |

These molecules were tested against T3, HEK293 and CHO cells transfected to express human 5T4 (assay: Cell binding to transfected HEK293 and CHO cells, human 5T4). Settings: not given.
Assay type: cell-based
Description: Unconjugated antibodies were tested for their ability to bind to HEK293 and CHO cells transfected to express human, cyno, rat, or mouse 5T4.

| Molecule | reactivity to cells transfected to express human 5T4 |
| --- | --- |
| B1 | reactive |
| B2 | reactive |
| B3 | reactive |

These molecules were tested against T2, unconjugated human TPBG/5T4 protein … (assay: ELISA on coated human 5T4 His-Avi (Acro TPG-H52E5); antibody condition: pH 5.5 Day 7). Settings: not given.
Description: as §2

| EC50 [nM] | Molecule |
| --- | --- |
| 0.19 | B4 |
| 0.124 | B5 |
| 0.132 | B6 |

What follows are molecules tested against T2, unconjugated human TPBG/5T4 protein … (assay: ELISA on coated human 5T4 His-Avi (Acro TPG-H52E5); antibody condition: pH 8.5 Day 0). Settings: not given.
Description: as §2

| EC50 [nM] | Molecule |
| --- | --- |
| 0.153 | B4 |
| 0.12 | B5 |
| 0.134 | B6 |
